# Assay results published in publication PMC8448314.
# Target: Fc-tagged SARS-CoV-2 RBD (residues 319-535, C-terminal human IgG4 Fc region) (SARS-CoV-2 | human) (UniProt P0DTC2)
# Experiment: SEC; Superose 6 Increase 10/300 GL gel filtration of each purified protein alone
substance,measurement,value
"Fc-tagged SARS-CoV-2 RBD (residues 319-535, C-terminal human IgG4 Fc region) (from UniProt P0DTC2 319-535) (Fc fusion)",stoichiometry N,2
